Source: patent publication WO2011083140A1 (dated 2011)
Where “and” joins values, the source holds several entries; their conditions need not be identical. Equal values may be shown once.

Legend:
[1] = molecular target: T1, human CXCR4 (human, UniProt P61073 1-352); test: cell-based or functional assay
[2] = molecular target: T1, human CXCR4; test: binding to Caki-CXCR4 cells, Table C-3
[3] = molecular target: T1, human CXCR4; test: SDF-1 displacement (competition with SDF-1 for CXCR4), Table C-3
[4] = molecular target: T1, human CXCR4; test: binding to CXCR4 VLP, Table C-3
[5] = molecular target: T2, mouse CXCR4 (mouse, UniProt P70658 1-359); test: binding FACS on murine BaF-3 cells, anti-myc detection
T2 construct: whole, on cells; also called mCXCR4

[6] = molecular target: T3, CXCR4 V196E (human, UniProt P61073 1-352); test: flow cytometry on transiently transfected HEK293T cells, Myc-tag detection
T3 construct: whole, on cells

[7] = molecular target: T4, CXCR4 D187V (human, UniProt P61073 1-352); test: as above
T4 construct: whole, on cells; Printed as Dl 87V in this copy

[8] = molecular target: T5, CXCR4 F189V (human, UniProt P61073 1-352); test: as above
T5 construct: whole, on cells
T5 sequence (P61073 whole entry F189V): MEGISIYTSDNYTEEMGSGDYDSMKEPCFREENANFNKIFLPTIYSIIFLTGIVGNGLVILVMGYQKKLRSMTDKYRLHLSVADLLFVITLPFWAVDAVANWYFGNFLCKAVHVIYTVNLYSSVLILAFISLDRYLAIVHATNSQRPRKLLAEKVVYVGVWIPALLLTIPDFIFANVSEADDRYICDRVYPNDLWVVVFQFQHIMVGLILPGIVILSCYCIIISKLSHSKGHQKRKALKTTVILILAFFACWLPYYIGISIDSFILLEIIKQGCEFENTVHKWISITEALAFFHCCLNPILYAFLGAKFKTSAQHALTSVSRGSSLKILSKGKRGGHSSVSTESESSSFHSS

T1 sequence (P61073 whole entry): as the sequence (P61073 whole entry F189V) above, with V189F counted along it
T2 sequence (P70658 whole entry): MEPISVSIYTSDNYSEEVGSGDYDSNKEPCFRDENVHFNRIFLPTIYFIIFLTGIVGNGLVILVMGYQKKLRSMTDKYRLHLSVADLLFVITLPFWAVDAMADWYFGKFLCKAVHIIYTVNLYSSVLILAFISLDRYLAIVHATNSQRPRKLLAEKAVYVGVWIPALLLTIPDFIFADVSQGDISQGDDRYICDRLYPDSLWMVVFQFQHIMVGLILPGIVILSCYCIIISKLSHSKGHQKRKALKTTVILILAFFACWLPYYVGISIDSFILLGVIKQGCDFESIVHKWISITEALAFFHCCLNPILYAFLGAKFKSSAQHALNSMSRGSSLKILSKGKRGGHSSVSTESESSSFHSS
T3 sequence (P61073 whole entry V196E): as the sequence (P61073 whole entry F189V) above, with V189F, V196E counted along it
T4 sequence (P61073 whole entry D187V): as the sequence (P61073 whole entry F189V) above, with D187V, V189F counted along it

Binder | Chemotaxis IC50 (M) +HSA [1] | Chemotaxis IC50 (M) -HSA [1] | Chemotaxis IC50 (nM) Jurkat [1] | EC50 [2] | IC50 [3] | Chemotaxis Jurkat cells IC50 (M) n=1 [1] | Chemotaxis Jurkat cells IC50 (M) n=2 [1] | Chemotaxis Jurkat cells IC50 (M) n=3 [1] | cAMP inhibition assay IC50 (M) n=1 [1] | cAMP inhibition assay IC50 (M) n=2 [1] | EC50 [4] | binding result [5] | binding result [6] | binding result [7] | binding result [8]
4CXCR281E10 (VHH, Family member of 238D4 (family 17); also called P4CXCR281E10; not shown: C-terminal c-myc tag and His6 tag) VHH: EVQLVESGGGLVQAGGSLRLSCKASGGTFNNYAMGWFRRAPGKEREFVAAITRSGVRSGVSAIYGDSVKDRFTISRDNVKNTLYLQMNTLKPEDTAVYTCAASAIGSGALRRFEYDYSGQGTQVTVSS | 2.2e-09 M | 2.08e-09 M | 3.5 nM and 4.7 nM | 3.1 nM | 3.1 nM | – | – | – | – | – | – | – | – | – | –
4CXCR010G10 (VHH, Alexa-647 label in the competition FACS of D-2, also called P4CXCR10G10; not shown: C-terminal c-myc tag and His6 tag) VHH: EVQLVESGGGLVQAGGSLRLSCAASGRTFNSYAMAWFRQAPGKERENVAAIRWSGGRATKYADSVRGRFTISKDNAKNTVYLQMSSLKPEDTAVYYCATQTYYRSGLASTRDFDSWGQGTQVTVSS | 7.74e-10 M | 4.11e-09 M | 2.1 nM and 2.3 nM | 3.3 nM | 7.9 nM | 2.1e-09 M | 2.3e-09 M | 4.1e-09 M | 1.6e-07 M | 9.6e-07 M | 0.29 nM | no binding | – | – | –
4CXCR015H03 (VHH, also called 15H3; P4CXCR15H3; not shown: C-terminal c-myc tag and His6 tag) VHH: EVQLVESGGGSVQTGGSLRVSCAASGLSFNTYTMGWLRQAPGKEREFVAVINWNGDRTNYADSVKGRFSVSRDNAKNTVFLQMNSLRPEDTAVYYCAARPRFTAEPMTSRRYQYWGRGTQVTVSS | – | – | – | – | – | – | – | – | – | – | – | – | binds | binds | binds
4CXCR010E09 (VHH, Monovalent Nanobody from E. coli; also called 10E9; P4CXCR10E09; not shown: C-terminal c-myc tag and His6 tag) VHH: EVQLVESGGGLVQTGGSLRLSCAASGRTFSSYAMGWFRRAPGKEREFVATISWRGDRKYYSESVKDRFTIARGRSNKNAVYLQMNSLKPEDTAVYYCAKDRAPYGSGSPDVKQYEHWGQGTQVTVSS | 1.93e-09 M | 3.29e-09 M | 3.5 nM and 1.2 nM | 2.4 nM | 4.7 nM | – | – | – | – | – | 0.52 nM | – | – | – | –
4CXCR010E12 (VHH, also called P4CXCR10E12; not shown: C-terminal c-myc tag and His6 tag) VHH: EVQLVESGGGLVQAGGSLRLSCAVSGRTFTSYDMAWFRQAPGKERESVAAIRWTGSSTYYADSVKGRFTISRDNAKSTVYLQMNSLKPEDTAVYYCAARDTGRYRSRTYDYWGQGTQVTVSS | 1.12e-09 M | 2.78e-09 M | 3.5 nM and 1.4 nM | – | 3 nM | – | – | – | – | – | 0.22 nM | no binding | – | – | –
4CXCR014A02 (VHH, also called 14A2; not shown: C-terminal c-myc tag and His6 tag) VHH: EVQLVESGGGLVQAGGSLRLSCVASGISSSIRNMGWYRQAPGKQRESVATISSGGNKDYTDAVKDRFTISRDTTKNTVYLQMSSLKPEDTAVYYCKIEAGTGWATRRGYTYWGQGTQVTVSS | – | – | – | 4 nM | 4.1 nM | 3.3e-09 M | 8.1e-10 M | – | 4e-07 M | 2.5e-06 M | 0.73 nM | – | – | – | –
4CXCR015A01 (VHH, not shown: small tags and cut ends, also called 15A1; P4CXCR15A01) VHH: EVQLVESGGGLVQAGGSLRLSCAASGRTFSRAAMGWFRQAPGKEREFVGCALSSAGSALTADSVKGRFTISRDNAKNMVYLQMNNLKPEDTAVYSCVAGGYCTRAGVYPYWGQGTQVTVSS | 1.18e-09 M | 1.7e-09 M | – | – | 5.1 nM | – | – | – | – | – | 0.2 nM | – | – | – | –
